The values that follow come from paper PMC9557730.

B1: N-terminal 3×-FLAG-tagged p52 (WT) [human] / p44 [human (endogenous in HEK293T)] (parent)
chain 1: MESTPSRGLNRVHLQCRNLQEFLGGLSPGVLDRLYGHPATCLAVFRELPSLAKNWVMRMLFLEQPLPQAAVALWVKKEFSKAQEESTGLLSGLRIWHTQLLPGGLQGLILNPIFRQNLRIALLGGGKAWSDDTSQLGPDKHARDVPSLDKYAEERWEVVLHFMVGSPSAAVSQDLAQLLSQAGLMKSTEPGEPPCITSAGFQFLLLDTPAQLWYFMLQYLQTAQSRGMDLVEILSFLFQLSFSTLGKDYSVEGMSDSLLNFLQHLREFGLVFQRKRKSRRYYPTRLAINLSSGVSGAGGTVHQPGFIVVETNYRLYAYTESELQIALIALFSEMLYRFPNMVVAQVTRESVQQAIASGITAQQIIHFLRTRAHPVMLKQTPVLPPTITDQIRLWELERDRLRFTEGVLYNQFLSQVDFELLLAHARELGVLVFENSAKRLMVVTPAGHSDVKRFWKRQKHSS
chain 2: MDEEPERTKRWEGGYERTWEILKEDESGSLKATIEDILFKAKRKRVFEHHGQVRLGMMRHLYVVVDGSRTMEDQDLKPNRLTCTLKLLEYFVEEYFDQNPISQIGIIVTKSKRAEKLTELSGNPRKHITSLKKAVDMTCHGEPSLYNSLSIAMQTLKHMPGHTSREVLIIFSSLTTCDPSNIYDLIKTLKAAKIRVSVIGLSAEVRVCTVLARETGGTYHVILDESHYKELLTHHVSPPPASSSSECSLIRMGFPQHTIASLSDQDAKPSFSMAHLDGNTEPGLTLGGYFCPQCRAKYCELPVECKICGLTLVSAPHLARSYHHLFPLDAFQEIPLEEYNGERFCYGCQGELKDQHVYVCAVCQNVFCVDCDVFVHDSLHCCPGCIHKIPAPSGV

In the assay the parent is B1. Description: FLAG-IP LC–MS (iBAQ). To be noted: with p44 [human (endogenous in HEK293T)]; HEK293T nuclear extracts; n = 3, biological replicates; read off a plot.
Regarding chain 1 R337A F338A, the response (Normalized Log2 iBAQ) amounted to 0.71.

chain 1 E310A R314A: the response (Normalized Log2 iBAQ) came to 0.66.

For the variant chain 1 E310F, the response (Normalized Log2 iBAQ) stood at 0.64.

On to chain 1 Y316A Y318A, for which the response (Normalized Log2 iBAQ) is 0.66.
